Measured values: PMC3565045

Molecular target: Cryptococcus neoformans acetate kinase (Cryptococcus neoformans)
Assay: crystal structure

## Cryptococcus neoformans acetate kinase (enzyme)
  stoichiometry N: 2
